Laboratory results published in US20240369575A1 (Genentech, published 2024).
Like-named read-outs stand apart in the source and are kept apart here.

Assays:
TRAF2 = target: T1, TRAF2 (UniProt Q12933 2-501); experiment: immunoprecipitation from cell lysates in 6 M urea buffer, western blot
T1 sequence (looked up): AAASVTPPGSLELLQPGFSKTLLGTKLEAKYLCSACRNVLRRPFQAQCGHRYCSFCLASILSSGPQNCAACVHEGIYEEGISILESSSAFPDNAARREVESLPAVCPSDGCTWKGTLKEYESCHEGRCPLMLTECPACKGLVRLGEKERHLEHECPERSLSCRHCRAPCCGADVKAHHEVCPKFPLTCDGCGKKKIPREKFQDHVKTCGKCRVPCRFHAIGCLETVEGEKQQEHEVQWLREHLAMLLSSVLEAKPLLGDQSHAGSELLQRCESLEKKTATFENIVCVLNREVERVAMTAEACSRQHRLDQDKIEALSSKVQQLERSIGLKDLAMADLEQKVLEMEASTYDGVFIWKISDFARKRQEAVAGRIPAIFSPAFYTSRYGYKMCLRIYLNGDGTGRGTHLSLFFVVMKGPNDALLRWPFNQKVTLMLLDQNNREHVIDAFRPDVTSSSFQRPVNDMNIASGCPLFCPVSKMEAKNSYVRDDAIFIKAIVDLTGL

RIP2 = target: T2, RIP2 (Homo sapiens (Human), UniProt O43353 1-540); experiment: as above
T2 construct: also called RIPK2
T2 sequence (O43353 whole entry): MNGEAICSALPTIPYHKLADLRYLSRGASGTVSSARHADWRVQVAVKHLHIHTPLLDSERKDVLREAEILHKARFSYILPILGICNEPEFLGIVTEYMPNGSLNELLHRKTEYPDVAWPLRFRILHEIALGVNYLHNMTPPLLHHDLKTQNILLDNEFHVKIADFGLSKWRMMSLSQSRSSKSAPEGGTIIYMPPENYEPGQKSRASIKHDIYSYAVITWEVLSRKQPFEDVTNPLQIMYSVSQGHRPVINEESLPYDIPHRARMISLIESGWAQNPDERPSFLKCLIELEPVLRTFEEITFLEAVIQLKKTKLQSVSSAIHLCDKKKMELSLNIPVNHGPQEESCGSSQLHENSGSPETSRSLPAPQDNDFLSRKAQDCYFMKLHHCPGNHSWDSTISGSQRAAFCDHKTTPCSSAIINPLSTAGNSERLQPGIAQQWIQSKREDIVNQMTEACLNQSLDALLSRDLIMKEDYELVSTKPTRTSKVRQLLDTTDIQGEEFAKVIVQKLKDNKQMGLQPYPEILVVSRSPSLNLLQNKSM

[1] = target: T3, RIP2 modified by mixed and/or branched K63-linked and linear ubiquitin chains (UniProt P0CG48 1-76); experiment: IP from THP1 cells untreated or treated with MDP (1 ug/ml, 30 min), 6 M urea lysis; western blot RIP2
T3 construct: mature; also called modified RIP2; K63- and linear chain-ubiquitinated RIP2
T3 sequence (chain, as listed by the source limits assumed, chain 1 of 2, other chains not shown): as the sequence (O43353 whole entry) above

RIP3 [2] = experiment: IP from HT29 WT or RIP1 KO cells with or without TBZ; western blot RIP3
Chain of RIP3 (chain, as listed by the source limits assumed): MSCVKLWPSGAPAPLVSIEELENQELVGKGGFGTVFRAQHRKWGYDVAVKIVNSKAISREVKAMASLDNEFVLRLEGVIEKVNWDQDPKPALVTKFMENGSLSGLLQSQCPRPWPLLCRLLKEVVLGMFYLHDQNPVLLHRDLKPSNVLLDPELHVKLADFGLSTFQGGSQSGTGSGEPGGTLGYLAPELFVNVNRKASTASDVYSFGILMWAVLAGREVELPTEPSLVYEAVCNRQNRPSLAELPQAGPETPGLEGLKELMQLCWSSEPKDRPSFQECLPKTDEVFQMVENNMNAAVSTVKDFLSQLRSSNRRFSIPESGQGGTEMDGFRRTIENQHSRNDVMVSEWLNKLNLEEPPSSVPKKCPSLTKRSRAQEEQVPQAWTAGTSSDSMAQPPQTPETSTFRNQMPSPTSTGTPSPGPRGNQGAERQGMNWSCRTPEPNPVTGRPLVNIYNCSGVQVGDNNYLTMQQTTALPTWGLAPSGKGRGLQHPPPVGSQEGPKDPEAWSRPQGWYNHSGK

c-IAP1 [3] = target: T4, c-IAP1 (UniProt Q13490 1-618); experiment: IP from THP1 cells with or without MDP (1 ug/ml, 30 min), 6 M urea lysis; western blot c-IAP1
T4 sequence (Q13490 whole entry): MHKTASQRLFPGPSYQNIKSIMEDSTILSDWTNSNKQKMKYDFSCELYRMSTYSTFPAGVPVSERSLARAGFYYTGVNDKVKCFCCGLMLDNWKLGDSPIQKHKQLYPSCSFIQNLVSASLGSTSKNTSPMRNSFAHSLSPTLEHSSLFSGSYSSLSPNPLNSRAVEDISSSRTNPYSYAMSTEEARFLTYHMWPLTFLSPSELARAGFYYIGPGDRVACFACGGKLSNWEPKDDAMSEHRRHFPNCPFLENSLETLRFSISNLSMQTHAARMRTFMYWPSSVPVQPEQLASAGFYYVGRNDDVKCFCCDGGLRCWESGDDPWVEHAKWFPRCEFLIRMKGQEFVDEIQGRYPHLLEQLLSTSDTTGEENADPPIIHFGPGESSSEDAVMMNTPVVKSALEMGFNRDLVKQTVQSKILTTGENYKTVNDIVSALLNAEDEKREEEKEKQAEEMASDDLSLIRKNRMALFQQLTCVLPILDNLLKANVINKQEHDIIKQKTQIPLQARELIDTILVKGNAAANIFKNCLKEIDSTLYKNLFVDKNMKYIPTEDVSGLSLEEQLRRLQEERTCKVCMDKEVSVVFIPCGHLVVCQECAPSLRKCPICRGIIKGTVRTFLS

XIAP [4] = target: T5, XIAP (UniProt P98170 1-497); experiment: IP from THP1 cells with or without MDP (1 ug/ml, 30 min), 6 M urea lysis; western blot XIAP (label cut to XIA on the sheet)
T5 sequence (P98170 whole entry): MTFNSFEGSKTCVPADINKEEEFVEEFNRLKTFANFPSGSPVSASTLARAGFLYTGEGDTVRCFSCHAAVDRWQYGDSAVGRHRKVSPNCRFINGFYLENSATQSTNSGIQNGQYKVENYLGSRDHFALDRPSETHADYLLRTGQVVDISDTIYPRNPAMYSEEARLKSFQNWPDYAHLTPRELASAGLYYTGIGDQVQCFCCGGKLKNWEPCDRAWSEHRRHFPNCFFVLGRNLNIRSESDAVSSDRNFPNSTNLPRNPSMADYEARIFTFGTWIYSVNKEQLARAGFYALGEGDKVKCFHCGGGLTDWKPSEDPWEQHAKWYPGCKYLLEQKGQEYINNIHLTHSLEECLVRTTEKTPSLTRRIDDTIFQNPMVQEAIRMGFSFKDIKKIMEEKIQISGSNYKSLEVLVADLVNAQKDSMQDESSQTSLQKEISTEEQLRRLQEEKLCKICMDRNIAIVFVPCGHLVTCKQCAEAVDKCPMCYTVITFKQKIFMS

RIP3 [5] = experiment: IP from HT29 WT or RIP1 KO cells with or without TBZ; western blot RIP3; remark: listed apart in the source
XIAP [6] = target: T5, XIAP; experiment: IP from THP1 cells with or without MDP (1 ug/ml, 30 min), 6 M urea lysis; western blot XIAP
Protocol: (§1) THP1 cells were treated with PBS or MDP (1 μg/ml, 30 min). Cells were lysed in 6M urea buffer and immunoprecipitated using indicated RIP2-ubiquitin, K63-linear ubiquitin chain bispecific or control antibodies.

RIP1 = target: T6, RIP1; experiment: IP with K63-Lin from THP1 cells treated with PBS, TNF, MDP or LPS, 6 M urea lysis; western blot RIP1
T6 construct: also called non-ubiquitinated RIP1 (endogenous, human cell lines); RIPK1
T6 single chain: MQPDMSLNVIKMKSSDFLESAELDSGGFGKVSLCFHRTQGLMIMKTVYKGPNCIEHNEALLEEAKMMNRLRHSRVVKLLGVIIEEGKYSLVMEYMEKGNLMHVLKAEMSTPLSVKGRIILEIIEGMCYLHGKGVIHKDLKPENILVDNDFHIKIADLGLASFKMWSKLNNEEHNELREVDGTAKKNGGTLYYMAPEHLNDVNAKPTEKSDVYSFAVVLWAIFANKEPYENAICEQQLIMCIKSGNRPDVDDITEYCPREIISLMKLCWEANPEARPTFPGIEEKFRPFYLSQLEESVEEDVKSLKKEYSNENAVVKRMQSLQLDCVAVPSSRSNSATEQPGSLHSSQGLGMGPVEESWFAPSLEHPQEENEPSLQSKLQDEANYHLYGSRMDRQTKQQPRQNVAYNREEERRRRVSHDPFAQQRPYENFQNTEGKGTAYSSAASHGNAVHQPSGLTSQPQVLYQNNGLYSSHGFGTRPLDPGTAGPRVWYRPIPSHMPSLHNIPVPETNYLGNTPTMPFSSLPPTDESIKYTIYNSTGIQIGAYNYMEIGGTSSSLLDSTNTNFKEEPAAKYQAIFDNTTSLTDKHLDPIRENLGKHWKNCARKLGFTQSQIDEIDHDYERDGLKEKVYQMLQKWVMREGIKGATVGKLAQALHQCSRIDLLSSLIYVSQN

c-IAP1 [7] = target: T4, c-IAP1; experiment: IP from THP1 cells with or without MDP (1 ug/ml, 30 min), 6 M urea lysis; western blot c-IAP1; remark: listed apart in the source
Protocol: as §1

c-IAP1 [8] = target: T4, c-IAP1; experiment: immunoprecipitation from MDP-treated THP1 lysates in 6 M urea buffer, western blot
Protocol: as §1

XIAP [9] = target: T5, XIAP; experiment: as above
Protocol: as §1

Measured: binding result

B1: anti-RIP1/anti-K63 bispecific antibody (bispecific antibody, human IgG1, kappa)
heavy 1: not shown
light 1: DIQMTQSPSSLSASVGDRVTITCRASQSVSSAVAWYQQKPGEAPKLLIYSARSLYSGVPSRFSGSRSGTDFTLTISSLQPEDFATYYCQQYSSYSSLFTFGQGTKVEIKRTVAAPSVFIFPPSDEQLKSGTASVVCLLNNFYPREAKVQWKVDNALQSGNSQESVTEQDSKDSTYSLSSTLTLSKADYEKHKVYACEVTHQGLSSPVTKSFNRGEC
heavy 2: not shown
light 2: NIMMTQSPSSLAVSAGQKVTMNCKSSQNVIYTSNQRNYLAWYQQKPGQSPKLLIYWASTRVSGVPDRFTGSGSGTDFTLTISSVEVEDLAVYYCHQYLSSWTFGGGTKVEIKRTVAAPSVFIFPPSDEQLKSGTASVVCLLNNFYPREAKVQWKVDNALQSGNSQESVTEQDSKDSTYSLSSTLTLSKADYEKHKVYACEVTHQGLSSPVTKSFNRGEC
notes: also called RIP1-K63; RIP1-K63 ubiquitin chain bispecific antibody
no binding: TRAF2 | RIP2 | [1] | RIP3 [2]

B2: anti-RIP2/anti-K63 bispecific antibody (bispecific antibody, human IgG1, kappa)
heavy 1: not shown
light 1: B1 light 1
heavy 2: not shown
light 2: not shown
notes: also called RIP2-K63
no binding: c-IAP1 [3] | XIAP [4]

B3: anti-RIP1/anti-M1 bispecific antibody (bispecific antibody, human IgG1, kappa)
heavy 1: not shown
light 1: DIQMTQSPSSLSASVGDRVTITCRASQDVSTAVAWYQQKPGKAPKLLIYSAKFLYSGVPSRFSGSGSGTDFTLTISSLQPEDFATYYCQQSYTTPPTFGQGTKVEIKRTVAAPSVFIFPPSDEQLKSGTASVVCLLNNFYPREAKVQWKVDNALQSGNSQESVTEQDSKDSTYSLSSTLTLSKADYEKHKVYACEVTHQGLSSPVTKSFNRGEC
heavy 2: not shown
light 2: B1 light 2
notes: also called RIP1-Lin; RIP1-Lin ubiquitin chain bispecific antibody
no binding: TRAF2 | RIP2 | RIP3 [5]

B4: anti-M1/anti-K63 bispecific antibody (bispecific antibody, V domains shown)
VH 1: EVQLVESGGGLVQPGGSLRLSCAASGFNVKTGLIHWVRQAPGKGLEWVAYITPYYGSTSYADSVKGRFTISADTSKNTAYLQMNSLRAEDTAVYYCAREYYRWYTAIDYWGQGTLVTVSS
VL 1: DIQMTQSPSSLSASVGDRVTITCRASQSVSSAVAWYQQKPGEAPKLLIYSARSLYSGVPSRFSGSRSGTDFTLTISSLQPEDFATYYCQQYSSYSSLFTFGQGTKVEIK
VH 2: EVQLVESGGGLVQPGGSLRLSCAASGFTFSNTYISWVRQAPGKGLEWVASITPSSGQTDYADSVKGRFTISADTSKNTAYLQMNSLRAEDTAVYYCARTWLLRWVMDLWGQGTLVTVSS
VL 2: DIQMTQSPSSLSASVGDRVTITCRASQDVSTAVAWYQQKPGKAPKLLIYSAKFLYSGVPSRFSGSGSGTDFTLTISSLQPEDFATYYCQQSYTTPPTFGQGTKVEIK
notes: also called K63-Lin; K63-linear ubiquitin chain bispecific antibody
no binding: RIP3 [5] | XIAP [6] | RIP1 | c-IAP1 [7]

B5: anti-RIP2/anti-M1 bispecific antibody (bispecific antibody, human IgG1, kappa)
heavy 1: not shown
light 1: B3 light 1
heavy 2: not shown
light 2: not shown
notes: also called RIP2-Lin
no binding: c-IAP1 [8] | XIAP [9]
